These results are taken from patent publication US20180155451A1 (published 2018).

The target of experiment [1] is T1, FcγRIIa R (extracellular domain, C-terminal His tag) (human, UniProt P12318 34-217).
T1 construct: extracellular domain; also called FcgRIIa R type; 2aR; not shown: His tag attached to the C terminus
T1 sequence (looked up): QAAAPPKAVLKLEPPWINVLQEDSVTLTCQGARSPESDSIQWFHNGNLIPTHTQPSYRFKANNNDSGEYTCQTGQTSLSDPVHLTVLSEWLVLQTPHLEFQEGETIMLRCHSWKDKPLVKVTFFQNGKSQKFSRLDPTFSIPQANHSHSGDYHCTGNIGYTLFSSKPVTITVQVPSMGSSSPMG
In words: ratio of He/Con_2aR to He/Con_2b (FcγRIIb); SPR relative binding. As for the experimental part: (§1) The heterodimerized antibodies He Abs in which one of the H chains was introduced with an alteration were assayed for their binding activities to each activating FcγR and inhibitory FcγR according to the method described in Example 4. […] The activating FcγRs in FIGS. 26, 27, 28, and 29 are FcγRIa, FcγRIIa (R), FcγRIIa (H), and FcγRIIIa, respectively.
(§2) Analysis of interaction between objective antibody and the FcγR was carried out using Biacore T100 (GE Healthcare). HBS-EP+ (GE Healthcare) was used as the running buffer, and the measurement temperature was set to 25° C. Chips produced by immobilizing the antigen peptide by the amine coupling method to a Series S Sencor Chip CM5 (GE Healthcare), or alternatively, chips produced by allowing preliminarily biotinylated antigen peptides to interact with and immobilize onto a Series S Sensor Chip SA (certified) (GE Healthcare) were used. Antibodies of interest were captured onto an antigen peptide-immobilized chip, and allowed to interact to each FcγR diluted with running buffer. To regenerate and repeatedly use the chip, the antibodies captured on the chip were washed off by reacting 10 mM glycine-HCl, pH 1.5.

The target in experiment [2] is T1, FcγRIIa R (extracellular domain, …). In words: SPR (Biacore), antibody captured on antigen-peptide chip, FcγR as analyte; relative binding amount. As for the experimental part: as §1, §2
In general terms: Surface plasmon resonance follows binding to a sensor surface in real time, without labels.

Experiment [3] concerns the target T2, FcγRIIb (extracellular domain, C-terminal His tag) (human, UniProt P31994 43-217).
T2 construct: extracellular domain; also called FcgRIIb; 2b; not shown: His tag attached to the C terminus
T2 sequence (looked up): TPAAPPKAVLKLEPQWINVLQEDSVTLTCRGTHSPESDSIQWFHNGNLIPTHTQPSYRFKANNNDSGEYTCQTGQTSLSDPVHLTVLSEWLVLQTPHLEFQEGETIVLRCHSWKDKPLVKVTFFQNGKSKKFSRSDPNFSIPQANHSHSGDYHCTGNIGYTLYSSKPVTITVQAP
Described as above. As for the experimental part: as §1, §2

B1: GpH7-A5/GpH7-B3 variant S239_04F/GpL16-k0 (antibody, human IgG1, kappa)
heavy 1: not shown
heavy 2: not shown
light: DIVMTQSPLSLPVTPGEPASISCQASESLVHSNRNTYLHWYLQKPGQSPQLLIYKVSNRFSGVPDRFSGSGSGTDFTLKISRVEAEDVGVYYCSQNTHVPPTFGQGTKVEIERTVAAPSVFIFPPSDEQLKSGTASVVCLLNNFYPREAKVQWKVDNALQSGNSQESVTEQDSKDSTYSLSSTLTLSKADYEKHKVYACEVTHQGLSSPVTKSFNRGEC
notes: Heterodimerized anti-glypican-3 IgG1; also called He Ab
Regarding B1, the “He_2aR/2b (IIaR/IIb)” value in experiment [1] was found to be 1.24. In addition, the He/Con_2aR in experiment [2] is 54.8 % of control (GpH7-A5/GpH7-B3/GpL16-k0 = 100). Besides, in experiment [3], the He/Con_2b was 44.1 % of control (GpH7-A5/GpH7-B3/GpL16-k0 = 100).

B2: GpH7-A5/GpH7-B3 variant D265_08L/GpL16-k0 (antibody, human IgG1, kappa)
heavy 1: not shown
heavy 2: not shown
light: DIVMTQSPLSLPVTPGEPASISCQASESLVHSNRNTYLHWYLQKPGQSPQLLIYKVSNRFSGVPDRFSGSGSGTDFTLKISRVEAEDVGVYYCSQNTHVPPTFGQGTKVEIERTVAAPSVFIFPPSDEQLKSGTASVVCLLNNFYPREAKVQWKVDNALQSGNSQESVTEQDSKDSTYSLSSTLTLSKADYEKHKVYACEVTHQGLSSPVTKSFNRGEC
notes: Heterodimerized anti-glypican-3 IgG1; alteration in only one H chain (GpH7-B3 side); also called He Ab
Turning to B2, in experiment [1], the “He_2aR/2b (IIaR/IIb)” value came out at 1.46. Also, the He/Con_2aR in experiment [2] is 6.6 % of control (GpH7-A5/GpH7-B3/GpL16-k0 = 100). Besides, the He/Con_2b in experiment [3] was 4.6 % of control (GpH7-A5/GpH7-B3/GpL16-k0 = 100).

B3: GpH7-A5/GpH7-B3 variant P238_12R/GpL16-k0 (antibody, human IgG1, kappa)
heavy 1: not shown
heavy 2: not shown
light: DIVMTQSPLSLPVTPGEPASISCQASESLVHSNRNTYLHWYLQKPGQSPQLLIYKVSNRFSGVPDRFSGSGSGTDFTLKISRVEAEDVGVYYCSQNTHVPPTFGQGTKVEIERTVAAPSVFIFPPSDEQLKSGTASVVCLLNNFYPREAKVQWKVDNALQSGNSQESVTEQDSKDSTYSLSSTLTLSKADYEKHKVYACEVTHQGLSSPVTKSFNRGEC
notes: as for B2
On to B3, for which the “He_2aR/2b (IIaR/IIb)” value in experiment [1] turned out to be 1.57. In addition, the He/Con_2aR in experiment [2] is 80.5 % of control (GpH7-A5/GpH7-B3/GpL16-k0 = 100). Moreover, in experiment [3], the He/Con_2b was 51.4 % of control (GpH7-A5/GpH7-B3/GpL16-k0 = 100).

B4: GpH7-A5/GpH7-B3 variant D265_07I/GpL16-k0 (antibody, human IgG1, kappa)
heavy 1: not shown
heavy 2: not shown
light: DIVMTQSPLSLPVTPGEPASISCQASESLVHSNRNTYLHWYLQKPGQSPQLLIYKVSNRFSGVPDRFSGSGSGTDFTLKISRVEAEDVGVYYCSQNTHVPPTFGQGTKVEIERTVAAPSVFIFPPSDEQLKSGTASVVCLLNNFYPREAKVQWKVDNALQSGNSQESVTEQDSKDSTYSLSSTLTLSKADYEKHKVYACEVTHQGLSSPVTKSFNRGEC
notes: as for B2
Consider B4, for which the “He_2aR/2b (IIaR/IIb)” value in experiment [1] turned out to be 2.57. The He/Con_2aR in experiment [2] was 3.4 % of control (GpH7-A5/GpH7-B3/GpL16-k0 = 100). Further, the He/Con_2b in experiment [3] is 1.3 % of control (GpH7-A5/GpH7-B3/GpL16-k0 = 100).

B5: GpH7-A5/GpH7-B3 variant D265_02A/GpL16-k0 (antibody, human IgG1, kappa)
heavy 1: not shown
heavy 2: not shown
light: DIVMTQSPLSLPVTPGEPASISCQASESLVHSNRNTYLHWYLQKPGQSPQLLIYKVSNRFSGVPDRFSGSGSGTDFTLKISRVEAEDVGVYYCSQNTHVPPTFGQGTKVEIERTVAAPSVFIFPPSDEQLKSGTASVVCLLNNFYPREAKVQWKVDNALQSGNSQESVTEQDSKDSTYSLSSTLTLSKADYEKHKVYACEVTHQGLSSPVTKSFNRGEC
notes: as for B2
Consider B5, for which the “He_2aR/2b (IIaR/IIb)” value in experiment [1] is 1.71. For the same molecule, the He/Con_2aR in experiment [2] was 33.9 % of control (GpH7-A5/GpH7-B3/GpL16-k0 = 100). For the same molecule, in experiment [3], the He/Con_2b was 19.9 % of control (GpH7-A5/GpH7-B3/GpL16-k0 = 100).

B6: GpH7-A5/GpH7-B3 variant P238_13S/GpL16-k0 (antibody, human IgG1, kappa)
heavy 1: not shown
heavy 2: not shown
light: DIVMTQSPLSLPVTPGEPASISCQASESLVHSNRNTYLHWYLQKPGQSPQLLIYKVSNRFSGVPDRFSGSGSGTDFTLKISRVEAEDVGVYYCSQNTHVPPTFGQGTKVEIERTVAAPSVFIFPPSDEQLKSGTASVVCLLNNFYPREAKVQWKVDNALQSGNSQESVTEQDSKDSTYSLSSTLTLSKADYEKHKVYACEVTHQGLSSPVTKSFNRGEC
notes: as for B2
B6: the “He_2aR/2b (IIaR/IIb)” value in experiment [1] was found to be 1.26. The He/Con_2aR in experiment [2] is 88.9 % of control (GpH7-A5/GpH7-B3/GpL16-k0 = 100). Moreover, the He/Con_2b in experiment [3] is 70.4 % of control (GpH7-A5/GpH7-B3/GpL16-k0 = 100).

B7: GpH7-A5/GpH7-B3 variant D265_03V/GpL16-k0 (antibody, human IgG1, kappa)
heavy 1: not shown
heavy 2: not shown
light: DIVMTQSPLSLPVTPGEPASISCQASESLVHSNRNTYLHWYLQKPGQSPQLLIYKVSNRFSGVPDRFSGSGSGTDFTLKISRVEAEDVGVYYCSQNTHVPPTFGQGTKVEIERTVAAPSVFIFPPSDEQLKSGTASVVCLLNNFYPREAKVQWKVDNALQSGNSQESVTEQDSKDSTYSLSSTLTLSKADYEKHKVYACEVTHQGLSSPVTKSFNRGEC
notes: as for B2
B7: the “He_2aR/2b (IIaR/IIb)” value in experiment [1] is 1.8. The He/Con_2aR in experiment [2] was 5.8 % of control (GpH7-A5/GpH7-B3/GpL16-k0 = 100). Further, the He/Con_2b in experiment [3] is 3.2 % of control (GpH7-A5/GpH7-B3/GpL16-k0 = 100).

B8: GpH7-A5/GpH7-B3 variant P238_18N/GpL16-k0 (antibody, human IgG1, kappa)
heavy 1: not shown
heavy 2: not shown
light: DIVMTQSPLSLPVTPGEPASISCQASESLVHSNRNTYLHWYLQKPGQSPQLLIYKVSNRFSGVPDRFSGSGSGTDFTLKISRVEAEDVGVYYCSQNTHVPPTFGQGTKVEIERTVAAPSVFIFPPSDEQLKSGTASVVCLLNNFYPREAKVQWKVDNALQSGNSQESVTEQDSKDSTYSLSSTLTLSKADYEKHKVYACEVTHQGLSSPVTKSFNRGEC
notes: as for B2
Take B8: the “He_2aR/2b (IIaR/IIb)” value in experiment [1] is 1.26. Besides, in experiment [2], the He/Con_2aR was 91.9 % of control (GpH7-A5/GpH7-B3/GpL16-k0 = 100). In experiment [3], the He/Con_2b was 73.2 % of control (GpH7-A5/GpH7-B3/GpL16-k0 = 100).
